Columns and labels:
[1] = biological target: T1, full length human KLRG1 expressed on CHOK1 cells (CHOK1-hKLRG1) (human, UniProt Q96E93 1-195); assay: FACS on CHOK1-hKLRG1 cells, anti-human IgG-Alexa 488 detection
T1 construct: whole, on cells; also called killer cell lectin-like receptor G1
T1 sequence (looked up): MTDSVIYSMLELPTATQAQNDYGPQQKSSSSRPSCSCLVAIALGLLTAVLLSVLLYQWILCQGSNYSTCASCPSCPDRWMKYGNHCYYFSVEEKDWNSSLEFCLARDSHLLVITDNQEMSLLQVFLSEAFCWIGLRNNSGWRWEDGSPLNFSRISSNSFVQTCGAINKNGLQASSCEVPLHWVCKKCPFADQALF
Experimental: Binding of anti-KLRG1 monoclonal antibodies to cell expressed human and cynomolgus-KLRG1 is carried out by FACS. Chinese hamster ovary (CHO) cells are stably transfected to express full length human KLRG1 (CHOK1-hKLRG1)). CHOK1-hKLRG1 expressing cells were cultured and incubated with varying concentrations of either PA015 or control human IgG1. Cells were then centrifuged, the supernatant discarded, and washed with an incubation buffer (HBSS+2% FBS+10 mM Ca2+). Cells were resuspended and incubated with anti-human IgG-Alexa 488, washed, resuspended, and underwent FACS study.

[2] = biological target: T1, full length human KLRG1 expressed on …; assay: FACS competition on CHOK1-hKLRG1 cells; inhibition of E-cadherin-ECD-FC-biotin (0.3 uM) binding
Experimental: The ability of monoclonal antibodies to inhibit E-cadherin/KLRG1 binding is measured by FACS.
(§1) CHOK1-hKLRG1 expressing cells were cultured and incubated with varying concentrations of either PA015 or control human IgG1. Recombinant human E-cadherin-ECD-FC-biotin at 0.3 μM was then added and incubated. Cells were then centrifuged, the supernatant discarded, and washed with an incubation buffer (HBSS+2% FBS+10 mM Ca2+). Cells were resuspended and incubated with Streptavidin-Alexa 488, washed, resuspended, and underwent FACS study.

[3] = biological target: T1, full length human KLRG1 expressed on …; assay: FACS competition on CHOK1-hKLRG1 cells; inhibition of E-cadherin-ECD-FC-biotin (0.3 uM) binding (Example 7)
Experimental: as §1, with “PA015, HG1N01, HG1N02” for “either PA015”, “were” for “were then”

- EC50 [1]: 1.33 nM
- IC50 [2]: 8.05 nM
- IC50 [3]: 5.3 nM
B1: PA015 (antibody, human IgG1, kappa, V domains shown)
VH: QVTLRESGPALVKPTQTLTLTCTVSGFSLSTFGMGVGWIRQPPGKALEWLAHIWWDDDKWYELALKSRLTISKDTSKNQVVLTITNMDPVDTATYYCARVIYYGSRSAYYSMDYWGQGTTVTVSS
VL: DVVMTQTPLSLSVTPGQPASISCKSSQSIVHSNAHTYLEWYLQKPGQSPQLLIYKVSNRFSGVPDRFSGSGSGTDFTLKISRVEAEDVGVYYCFQGSHVPVTFGQGTKLEIKR
notes: also called PA015 antibody; anti-KLRG1 antibody PA015

Source: patent US20240174754A1 (ABCURO, published 2024)
